Measurements as given in PMC9677513.

Columns and labels:
[1] = target: Nano-CRAF^CAT (human) (UniProt P04049); test: FRET or BRET
[2] = target: E275K-BRAF^FL-RLuc8 (human) (UniProt P15056); test: FRET or BRET

Row | Substance | increase of BRET signal over CRAF^REG [1] [%] | increase of BRETmax over WT [2] [%]
1 | CRAF^REG construct containing the BRAF-CRD, Halo-tagged (domain or fragment) | 40 | –
2 | Venus-KRAS^G12V (from UniProt P01116 1-189) (natural protein) | – | 15
